Tested on: Streptococcus mutans
Assay: activity of full length lactoferrin variants expressed in insect cells against S. mutans
Format: cell-based
Details: Lf variant expressed in an insect vector
Source text: Caries is the single most common chronic childhood disease, five times more common than asthma. Over 70% of children […] have cavities. Over 108 million Americans lack dental health insurance so that treatment of this infection is lacking. S. mutans is considered one of the microbes most associated with dental decay.
Lactoferrin (Lf) is a multifunctional protein that is found in mammary secretion, tears and saliva and in the gastrointestinal tract. Its main function is to sequester iron from its surroundings to prevent oral microbes from attaining iron, a mineral necessary for survival. In addition, in its N-terminus, Lf has a region that has antimicrobial properties. This region is called the defensin region and it has been shown since 1980's that Lf can kill many types of bacteria including oral bacteria. It was also shown that within that N-terminus region, from amino acid position 11 to 31, at least two polymorphic forms exist. For the most part variation in this defensin region at amino acid position 29 can either contain arginine or lysine. […] Further we then determined that pure lactoferrin would have limited usefulness in the oral cavity unless it was linked to something that would allow it to bind to the tooth surface. […]

B1: arginine variant: more common Lf variant with arginine at position 29, expressed in an insect vector (protein, UniProt P02788 20-710, looked up)
Lactotransferrin: GRRRSVQWCAVSQPEATKCFQWQRNMRKVRGPPVSCIKRDSPIQCIQAIAENRADAVTLDGGFIYEAGLAPYKLRPVAAEVYGTERQPRTHYYAVAVVKKGGSFQLNELQGLKSCHTGLRRTAGWNVPIGTLRPFLNWTGPPEPIEAAVARFFSASCVPGADKGQFPNLCRLCAGTGENKCAFSSQEPYFSYSGAFKCLRDGAGDVAFIRESTVFEDLSDEAERDEYELLCPDNTRKPVDKFKDCHLARVPSHAVVARSVNGKEDAIWNLLRQAQEKFGKDKSPKFQLFGSPSGQKDLLFKDSAIGFSRVPPRIDSGLYLGSGYFTAIQNLRKSEEEVAARRARVVWCAVGEQELRKCNQWSGLSEGSVTCSSASTTEDCIALVLKGEADAMSLDGGYVYTAGKCGLVPVLAENYKSQQSSDPDPNCVDRPVEGYLAVAVVRRSDTSLTWNSVKGKKSCHTAVDRTAGWNIPMGLLFNQTGSCKFDEYFSQSCAPGSDPRSNLCALCIGDEQGENKCVPNSNERYYGYTGAFRCLAENAGDVAFVKDVTVLQNTDGNNNEAWAKDLKLADFALLCLDGKRKPVTEARSCHLAMAPNHAVVSRMDKVERLKQVLLHQQAKFGRNGSDCPDKFCLFQSETKNLLFNDNTECLARLHGKTTYEKYLGPQYVAGITNLKKCSTSPLLEACEFLRK
killing / survival of S. mutans: little to no effect

From patent US8513182B2, “Natural polypeptides for oral health care” (priority 2007, dated 2013)
